This note sets out measurements from US20180112193A1, “CSF1 THERAPEUTICS” (University Court Of The University Of Edinburgh, priority 2013, published 2018).

One data set relates to male C57BI6 mice. The experiment in a line: Paracetamol intoxication in mice. Format: in vivo, mouse. Particulars: administered 12 hours following paracetamol intoxication; Day 4. The method, then: Forty-eight male C57BI6 mice aged 10-12 weeks underwent either 2/3 partial hepatectomy, paracetamol intoxication or chronic liver injury plus 2/3 partial hepatectomy. 2/3 partial hepatectomy was performed by ligating the left lobe and left and right median lobes. Paracetamol intoxication was performed by intraperitoneal administration of 350 mg/kg paracetamol dissolved in phosphate buffered saline (PBS). Chronic liver injury plus 2/3 partial hepatectomy was performed by eight weeks intraperitoneal carbon tetrachloride administration 1 mcl/g twice weekly dissolved in olive oil followed by ⅔ partial hepatectomy as described above. […] Control mice (n=8 per injury model) received subcutaneous PBS of appropriate volume. All mice were culled on day 4 following injury (partial hepatectomy or paracetamol intoxication).
Following a midline laparotomy the liver was excised and weighed. Liver weight to body weight ratio was calculated and expressed as a percentage. Livers were fixed in 4% formalin overnight then transferred to 70% ethanol. Livers were then embedded in paraffin blocks and 4 μm sections cut. Immunohistochemistry for Ki67 (a marker of cellular proliferation expressed throughout the cell cycle) was performed following heat mediated antigen retrieval in Tris/EDTA solution at pH9. Hepatocyte proliferation was quantified by counting ki67 positive hepatocytes in 20 high powered fields (400×) per animal and the mean calculated.
Hepatic CSF1 gene expression was assessed in mice following paracetamol intoxication (350 mg/kg paracetamol IP following overnight fast) at time points up to 4 days, showing peak CSF1 gene expression at day 2 (FIG. 14A).

Data set [1] relates to Ba/F3 CS1R reporter cell line. The experiment in a line: Proliferation of Ba/F3 CS1R reporter cell line (MTT cell viability assay). In kind it is cell-based, porcine. Conditions: data not shown. The method, then:
Stable Ba/F3 cells expressing porcine CSF-1R were maintained in culture with complete RPMI supplemented with either 10^4 Units/ml rh-CSF-1 or 10% IL-3 conditioned medium prior to MTT assay. 2×10^4 cells/well (Ba/F3 cells and Ba/F3 transfectants), or 5×10^4 cells/well (pig BMM) of a 96 well plate were plated in triplicate or quadruplicate and appropriate treatment (serial dilutions of rh-CSF-1 or porcine Fc CSF-1 were added to make a total volume of 100 μl per well. Cells were incubated for 48 hours at 37° C. with 5% CO2. For Ba/F3 cells, 10 μl of MTT (Sigma Aldrich M5655) stock solution (5 mg/ml) was added directly to each well to achieve a final concentration of 0.5 mg/ml and incubated at 37° C. for 3 hours prior to solubilisation overnight. For adherent mouse BMM cells, culture medium was replaced with 50 μl of 1 mg/ml MTT solution and incubated for 1 hour at 37° C. MTT solution was removed and tetrazolium salt solubilised with 100 μl of solubilisation agent (0.1M HCL, 10% Triton x-100 and isopropanol) followed by incubation at 37° C. with 5% CO2 for 10 minutes. Plates were read at 570 nm with reference wavelength of 405 nm.
Mice were injected with Fc-CSF-1 subcutaneously on each of 4 days and sacrificed on the 5th day. The mice were csf1r-EGFP (MacGreen) mice on the C57BI/6 background. […]

The subject of the next data set is neonatal pigs. The data set is described as follows: Fc-CSF-1 efficacy/safety treatment trial in neonatal pigs. In kind it is in vivo, pig. As for the experimental part:
Further tests were conducted to assess Fc-CSF-1 efficacy/safety treatment trial in neonatal pigs. At the two doses tested (0.12 mg/Kg×3 and 0.5 mg/Kg×6) the Fc-CSF-1 treatment had little effect on body weight gain at any time point. […] It was noted that in the control animals, that the total blood cell count, monocyte count and granulocyte count declines in the first two weeks of life in the pig.

For another data set, the system named is C57BI6 male mice. The data set is described as follows: Hepatic phagocytic ability after partial hepatectomy (gene analysis, bead clearance assay, ex vivo imaging). In kind it is in vivo, mouse. The method, then: C57BI6 male mice (8-10 weeks) underwent either partial hepatectomy (⅔ resection) or paracetamol intoxication (350 mg/kg intraperitoneal following overnight fast). CSF1-Fc was administered as previous (0.75 mg/kg). Gene analysis was performed using Qiagen Quantitect Primers (MSR1 and MARCO) and related to GAPDH level for each sample. […] 0.1 mls of 5000 IU/ml heparin solution was infused to prevent blockage of the catheter. 100 μl of red fluorescent bead solution (1:5 Latex beads 1.0 μm, fluorescent red, SIGMA-ALDRICH®) was infused through the cannula (1:2 solution for assay following paracetamol injury). 20 mcl of blood was removed from the cannula every two minutes starting from 1 minute post injection for 15 minutes. Blood was immediately fixed with 300 μl FACS-Lysing solution (BD Biosceinces). After 15 minutes mice were perfused with 15 mls 0.9% saline through the IVC cannula after dividing the portal vein for outflow. Organs were then removed (Liver, spleen, lungs, kidney, brain) and imaged with a Kodak In-Vivo Multispectral FX image station (Excitation: 550 nm; Emission: 600 nm; Exposure 1 sec; f-stop 2.8). Subsequently blood samples were analysed using a LSR-Fortessa™ flow cytometer (BD Biosciences) with fluorescent beads detected on the blue channel (B695/40) by a 1 minute sample collection on low flow rate setting.

Where [2] appears, read: 0.12 mg/Kg×3, end of the experiment.
[3] abbreviates: day 2 following partial hepatectomy.

B1: Fc-CSF-1: active fragment of porcine CSF-1 (SEQ ID NO:1) linked to the hinge-CH3 region of porcine IgG1a (SEQ ID NO:2) (protein, listed as Sus scrofa)
chain: SENCSHMIGDGHLKVLQQLIDSQMETSCQIAFEFVDQEQLTDPVCYLKKAFLQVQDILDETMRFRDNTPNANVIVQLQELSLRLNSCFTKDYEEQDKACVRTFYETPLQLLEKIKNVFNETKNLLKKDWNIFSKNCNNSFAKCSSQHERQPEGRGTKTKPPCPICPGCEVAGPSVFIFPPKPKDTLMISQTPEVTCVVVDVSKEHAEVQFSWYVDGVEVHTAETRPKEEQFNSTYRVVSVLPIQHQDWLKGKEFKCKVNNVDLPAPITRTISKAIGQSREPQVYTLPPPAEELSRSKVTVTCLVIGFYPPDIHVEWKSNGQPEPEGNYRTTPPQQDVDGTFFLYSKLAVDKARWDHGETFECAVMHEALHNHYTQKSISKTQGK
As for B1, in the data set on male C57BI6 mice, the hepatocyte proliferation result is listed as “increasing” and the “liver weight to body weight ratio” value is “significantly increasing”. Moreover, the “biological activity (proliferation) compared with recombinant pig CSF-1” value in data set [1] is reported as “no difference in biological activity”. Moreover, in the data set on neonatal pigs (setting [2]), the kidney weight result is recorded as “did not alter”, the liver weight entry is given as “did not alter”, the lung weight entry was “did not alter” and the spleen weight entry was “did not alter”. Moreover, the body weight gain result with neonatal pigs (0.12 mg/Kg×3 and 0.5 mg/Kg×6, any time point) is listed as “little effect”. For the same molecule, in the data set on neonatal pigs (blood, vs control animals), the granulocyte count result is “increased”, the lymphocyte count entry is “increased” and the monocyte count entry is on record as “increased”. Further, the weight gain result in the data set with neonatal pigs (higher dose (0.5 mg/Kg×6), data not shown) was “marginal decrease”. Moreover, the “histiocytes in the liver (pathology report)” value in the data set with neonatal pigs (liver) is “increased numbers”. In addition, in the data set with C57BI6 male mice (0.75 mg/kg, following partial hepatectomy), the “phagocytic ability of the liver, clearance of fluorescent latex microbeads from the circulation” value was “dramatically enhanced”. For the same molecule, in the data set on C57BI6 male mice (15 minutes after bead injection, following partial hepatectomy), the “fluorescent intensity of whole liver, ex vivo imaging” value is “increased fluorescent intensity”. In addition, in the data set with C57BI6 male mice (setting [3]), the “MARCO gene expression, whole liver” value is listed as “upregulation” and the “MSR1 (macrophage scavenger receptor 1) gene expression, whole liver” value is on record as “upregulation”.
